{"source": "paper PMC2752191", "origin": "cited, not measured here", "key": {"Bax peptide": {"target": "Bax peptide (UniProt Q07812)", "sequence (Q07812 55-74)": "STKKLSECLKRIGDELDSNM"}, "Bak peptide": {"target": "Bak peptide (UniProt Q16611)"}, "Beclin1 peptide": {"target": "Beclin1 peptide (UniProt Q14457)", "sequence (Q14457 107-130)": "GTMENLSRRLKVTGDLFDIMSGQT"}}}
{"substance": "vBcl-2 (from UniProt P89884)", "values": [{"measurement": "Kd", "setting": "Bax peptide", "result": 690, "unit": "nM"}, {"measurement": "Kd", "setting": "Bak peptide", "result": 76, "unit": "nM"}, {"measurement": "Kd", "setting": "Beclin1 peptide", "result": 40, "unit": "nM"}]}
